In article PMC7566464:

Target: oxidised human Prdx6 (Peroxiredoxin 6), peroxidatic cysteine in the sulfenic acid form (human) (UniProt P30041)
Assay: SEC; Sephadex G-75, 20 mM Tris-HCl pH 7.0, 500 ul of 2 mg/ml protein, void volume by Blue dextran

- stoichiometry N: 2
Substance: oxidised human Prdx6 (Peroxiredoxin 6), peroxidatic cysteine in the sulfenic acid form (from UniProt P30041 1-224) (enzyme)
